For assay [1], the target named is N-terminus of influenza B nucleoprotein (B/NP_(1-70)) (influenza B virus (strain B/Memphis/13/03)). In words: ITC; MicroCal ITC200; 16 × 2.4 µL injections of 150 µM importin-α7 into 20 µM B/NP_TAIL; 20 mM Tris-HCl pH 7.5, 150 mM NaCl; 20 °C by the methods (25 °C by the legend of Figure 6); triplicate; single-binding site model. (In ITC the heat of successive injections is recorded.)

In assay [2] the target is importin-α1 (Mus musculus) (UniProt P52293). Conditions: cited from earlier work.
For assay [3] the target is unchanged. Conditions: cited from earlier work. The source holds these as a separate data set.

Where two headings read alike, the source gives them in different places.

Chain of N-terminus of influenza B nucleoprotein (B/NP_(1-70)) (influenza B virus (strain B/Memphis/13/03)) (P04665 1-70): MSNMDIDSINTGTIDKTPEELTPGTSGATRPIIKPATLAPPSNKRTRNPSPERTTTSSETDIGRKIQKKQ

Regarding “human importin-α7 (from UniProt O60684 1-536) (natural protein)”, in assay [1], the Kd – broadly, the free concentration of one partner at which half of the binding sites on the other are occupied at equilibrium, for simple one-to-one binding – was determined as 844 nM and the stoichiometry N (in general, a count of units in the complex or per binding partner) was 1.
Consider “influenza A nucleoprotein NLS2 213-216 (from UniProt Q289M3)”, for which, in assay [2], the Kd is 70000 nM.
As for “influenza A nucleoprotein tail NTAIL (from UniProt Q289M3)”, the Kd in assay [3] is 1700 nM.

Values taken from publication PMC5719345.
